Among the data in patent US20160068605A1 are IC50 (read off the curve): IL-3-induced CD123/CD131 heteromerization (RLU), EC50 (read off the curve) and Kd values, retold here.

The target of assay [1] is IL3RA-PK (CD123 tagged with ProLink) in HEK293 IL3RA-PK/CSF2RB-EA cells (UniProt P26951).
In assay [2] the target is endogenous CD123 on human leukaemia cells (OCI-AML5, TF-1) (human) (UniProt P26951). In words: MSD cell binding assay on OCI-AML5 cells (endogenous CD123).
Assay [3] deals with cyno CD123 ECD displayed on pDisplay-transfected cells (cynomolgus monkey). In words: MSD-CAT, cynoCD123 cells, assay-2.
Assay [4] has as its target IL3RA-PK (CD123 tagged with ProLink) in HEK293 IL3RA-PK/CSF2RB-EA cells (UniProt P26951). This is another data set of the same source.
In assay [5] the target is human CD123 SP1 ECD displayed on pDisplay-transfected cells (human) (UniProt P26951). In words: MSD-CAT, hCD123 cells, assay-2.

Where two headings read alike, the source gives them in different places.

As a reminder, the EC50 (read off the curve) is the midpoint of the concentration-response curve. A higher EC50 (read off the curve) goes with weaker potency. As usually defined, the Kd is the concentration at which binding is half-saturated. Low readings indicate higher affinity, high ones lower affinity.

Chain of cyno CD123 ECD displayed on pDisplay-transfected cells (cynomolgus monkey) (chain, as listed by the source): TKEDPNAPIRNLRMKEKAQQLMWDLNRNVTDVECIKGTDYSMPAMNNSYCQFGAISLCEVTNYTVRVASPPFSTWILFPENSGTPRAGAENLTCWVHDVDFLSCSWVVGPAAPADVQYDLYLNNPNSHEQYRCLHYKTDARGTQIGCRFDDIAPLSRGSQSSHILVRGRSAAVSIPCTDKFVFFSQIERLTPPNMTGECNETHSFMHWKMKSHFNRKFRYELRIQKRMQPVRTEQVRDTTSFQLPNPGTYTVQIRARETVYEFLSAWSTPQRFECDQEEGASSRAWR
Chain of human CD123 SP1 ECD displayed on pDisplay-transfected cells (human) (P26951 20-305): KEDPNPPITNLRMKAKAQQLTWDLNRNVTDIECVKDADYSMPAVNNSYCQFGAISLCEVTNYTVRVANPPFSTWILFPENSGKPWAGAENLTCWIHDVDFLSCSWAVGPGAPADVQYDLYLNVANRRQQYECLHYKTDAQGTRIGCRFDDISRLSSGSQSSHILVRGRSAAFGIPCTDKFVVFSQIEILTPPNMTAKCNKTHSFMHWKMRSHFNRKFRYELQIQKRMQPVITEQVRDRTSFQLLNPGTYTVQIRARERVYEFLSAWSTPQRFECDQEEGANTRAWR
Chain of endogenous CD123 on human leukaemia cells (OCI-AML5, TF-1) (human) (P26951 19-378): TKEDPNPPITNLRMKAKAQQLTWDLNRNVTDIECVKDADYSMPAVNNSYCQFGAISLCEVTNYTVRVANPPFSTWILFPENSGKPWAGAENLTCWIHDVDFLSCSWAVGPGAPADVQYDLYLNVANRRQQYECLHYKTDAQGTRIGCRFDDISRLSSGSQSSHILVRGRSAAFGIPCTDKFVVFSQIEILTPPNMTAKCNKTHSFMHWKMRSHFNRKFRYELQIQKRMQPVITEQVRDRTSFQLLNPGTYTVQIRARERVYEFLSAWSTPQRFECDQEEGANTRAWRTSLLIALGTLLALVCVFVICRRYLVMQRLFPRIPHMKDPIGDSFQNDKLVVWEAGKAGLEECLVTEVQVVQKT

B1: 7G3 (antibody, from another filing, V domains shown)
VH: EVQLQQSGPELVKPGASVKMSCKASGYTFTDYYMKWVKQSHGKSLEWIGDIIPSNGATFYNQKFKGKATLTVDRSSSTAYMHLNSLTSEDSAVYYCTRSHLLRASWFAYWGQGTLVTVSA
VL: DFVMTQSPSSLTVTAGEKVTMSCKSSQSLLNSGNQKNYLTWYLQKPGQPPKLLIYWASTRESGVPDRFTGSGSGTDFTLTISSVQAEDLAVYYCQNDYSYPYTFGGGTKLEIKR
For B1, the IC50 (read off the curve): IL-3-induced CD123/CD131 heteromerization (RLU) came to 200 ng/mL in assay [1] and 50 ng/mL in assay [4]. The EC50 (read off the curve) in assay [2] stood at 7 µg/mL. Also, the Kd in assay [3] is 0.057 nM; in assay [5], 0.154 nM.
